B1: r4_43_TrROS_Hall (parent)
chain: DLVTIKVPLENLEEIKKAAEKAGFKIVSISYDKENKEVTIVIEKKK

The variants in this data set derive from B1. Briefly: folding stability dG (cDNA display proteolysis); higher = more stable. To be noted: PBS, room temperature.
For the variant DLVTIKVPLENLEEIKKAAEKAGFKIVSISYDKENKEVTIVIEAKK, the “folding stability dG” value turned out to be 3.79 kcal/mol.
DLVTIKVPLENLEEIKKAAEKAGFKIVSISYDKENKVVTIVIEKKK: the “folding stability dG” value came to 4.14 kcal/mol.
For DLVTIKVPLENLEEIKKAAEKAGFKIVSISYDKENKYVTIVIEKKK, the “folding stability dG” value worked out at 3.9 kcal/mol.
Take DLVTIKVPLENLEEIKKAAEKAGFKIVSISYDKENKWVTIVIEKKK: the “folding stability dG” value was found to be 3.92 kcal/mol.
The value for DLVTIKVPLENLEEIKKAAEKAGFKIVSISYDKENKEVTMVIEKKK was 3.77 kcal/mol; that for DLVTIKVPLENLEEIKKAAEKAGFKIVSISYDKENKEVTCVIEKKK was 2.81 kcal/mol; that for DLVTIKVPLENLEEIKKAAEKAGFKIVSISYDKENKEVTGVIEKKK was 0.285 kcal/mol.
With DLVTIKVPLENLEEIKKAAEKAGFKIVSISYDKENKEVTYVIEKKK the figure was 2.75 kcal/mol; with DLVTIKVPLENLEEIKKAAEKAGFKIVSISYDKENKEVTNVIEKKK, -0.494 kcal/mol.
Consider DLVTIKVPLENLEEIKKAAEKAGFKIVSISYDKENKEVTLVIEKKK, for which the “folding stability dG” value worked out at 3.98 kcal/mol.
With DLVTIKVPLENLEEIKKAAEKAGFKIVSISYDKENKEVTSVIEKKK the figure was 0.271 kcal/mol.
The value for DLVTIKVPLENLEEIKKAAEKAGFKIVSISYDKENKEVTTVIEKKK was 1.73 kcal/mol.
The value for DLVTIKVPLENLEEIKKAAEKAGFKIVSISYDKENKEVTWVIEKKK was 1.82 kcal/mol.
Regarding DLVTIKVPLENLEEIKKAAEKAGFKIVSISYDKENKEVTFVIEKKK, the “folding stability dG” value was found to be 3.93 kcal/mol.
The value for DLVTIKVPLENLEEIKKAAEKAGFKIVSISYDKENKEVTHVIEKKK was -0.04 kcal/mol; that for DLVTIKVPLENLEEIKKAAEKAGFKIVSISYDKENKEVTAVIEKKK was 2.62 kcal/mol; that for DLVTIKVPLENLEEIKKAAEKAGFKIVSISYDKENKEVTQVIEKKK was 0.343 kcal/mol.
Turning to DLVTIKVPLENLEEIKKAAEKAGFKIVSISYDKENKEVTVVIEKKK, the “folding stability dG” value stood at 3.81 kcal/mol.
Turning to DLVTIKVPLENLEEIKKAAEKAGFKIVSISYDKENKEVTIDIEKKK, the “folding stability dG” value was determined as 2.77 kcal/mol.
The value for DLVTIKVPLENLEEIKKAAEKAGFKIVSISYDKENKEVTICIEKKK was 3.33 kcal/mol.
Consider DLVTIKVPLENLEEIKKAAEKAGFKIVSISYDKENKEVTIKIEKKK, for which the “folding stability dG” value was 3.47 kcal/mol.
With DLVTIKVPLENLEEIKKAAEKAGFKIVSISYDKENKEVTIGIEKKK, the “folding stability dG” value came out at 3.4 kcal/mol.
With DLVTIKVPLENLEEIKKAAEKAGFKIVSISYDKENKEVTILIEKKK the figure was 3.91 kcal/mol; with DLVTIKVPLENLEEIKKAAEKAGFKIVSISYDKENKEVTIRIEKKK, 3.47 kcal/mol.
On to DLVTIKVPLENLEEIKKAAEKAGFKIVSISYDKENKEVTIAIEKKK, for which the “folding stability dG” value came to 3.49 kcal/mol.
As for DLVTIKVPLENLEEIKKAAEKAGFKIVSISYDKENKEVTIQIEKKK, the “folding stability dG” value was 3.5 kcal/mol.
On to DLVTIKVPLENLEEIKKAAEKAGFKIVSISYDKENKEVTINIEKKK, for which the “folding stability dG” value was found to be 3.34 kcal/mol.
With DLVTIKVPLENLEEIKKAAEKAGFKIVSISYDKENKEVTIFIEKKK the figure was 3.76 kcal/mol; with DLVTIKVPLENLEEIKKAAEKAGFKIVSISYDKENKEVTIHIEKKK, 3.26 kcal/mol; with DLVTIKVPLENLEEIKKAAEKAGFKIVSISYDKENKEVTISIEKKK, 3.51 kcal/mol.
The value for DLVTIKVPLENLEEIKKAAEKAGFKIVSISYDKENKEVTIYIEKKK was 3.71 kcal/mol; that for DLVTIKVPLENLEEIKKAAEKAGFKIVSISYDKENKEVTIWIEKKK was 4.13 kcal/mol; that for DLVTIKVPLENLEEIKKAAEKAGFKIVSISYDKENKEVTIEIEKKK was 3.48 kcal/mol.
The value for DLVTIKVPLENLEEIKKAAEKAGFKIVSISYDKENKEVTIIIEKKK was 3.64 kcal/mol; that for DLVTIKVPLENLEEIKKAAEKAGFKIVSISYDKENKEVTITIEKKK was 3.42 kcal/mol.
Turning to DLVTIKVPLENLEEIKKAAEKAGFKIVSISYDKENKEVTIMIEKKK, the “folding stability dG” value came out at 3.48 kcal/mol.
In the case of DLVTIKVPLENLEEIKKAAEKAGFKIVSISYDKENKEVTIVIKKKK, the “folding stability dG” value was determined as 3.36 kcal/mol.
On to DLVTIKVPLENLEEIKKAAEKAGFKIVSISYDKENKEVTIVIRKKK, for which the “folding stability dG” value stood at 3.76 kcal/mol.
With DLVTIKVPLENLEEIKKAAEKAGFKIVSISYDKENKEVTIVIHKKK the figure was 3.88 kcal/mol; with DLVTIKVPLENLEEIKKAAEKAGFKIVSISYDKENKEVTIVIAKKK, 3.71 kcal/mol; with DLVTIKVPLENLEEIKKAAEKAGFKIVSISYDKENKEVTIVIGKKK, 3.26 kcal/mol.
The value for DLVTIKVPLENLEEIKKAAEKAGFKIVSISYDKENKEVTIVIVKKK was 3.63 kcal/mol.
The value for DLVTIKVPLENLEEIKKAAEKAGFKIVSISYDKENKEVTIVIMKKK was 4.04 kcal/mol; that for DLVTIKVPLENLEEIKKAAEKAGFKIVSISYDKENKEVTIVIDKKK was 3.9 kcal/mol.
With DLVTIKVPLENLEEIKKAAEKAGFKIVSISYDKENKEVTIVICKKK, the “folding stability dG” value turned out to be 4.02 kcal/mol.
With DLVTIKVPLENLEEIKKAAEKAGFKIVSISYDKENKEVTIVIWKKK the figure was 4.7 kcal/mol; with DLVTIKVPLENLEEIKKAAEKAGFKIVSISYDKENKEVTIVISKKK, 3.51 kcal/mol; with DLVTIKVPLENLEEIKKAAEKAGFKIVSISYDKENKEVTIVILKKK, 4.39 kcal/mol.
Consider DLVTIKVPLENLEEIKKAAEKAGFKIVSISYDKENKEVTIVIFKKK, for which the “folding stability dG” value stood at 4.59 kcal/mol.
With DLVTIKVPLENLEEIKKAAEKAGFKIVSISYDKENKEVTIVINKKK the figure was 3.78 kcal/mol.
Consider DLVTIKVPLENLEEIKKAAEKAGFKIVSISYDKENKEVTIVITKKK, for which the “folding stability dG” value was determined as 3.92 kcal/mol.
The value for DLVTIKVPLENLEEIKKAAEKAGFKIVSISYDKENKEVTIVIYKKK was 4.32 kcal/mol; that for DLVTIKVPLENLEEIKKAAEKAGFKIVSISYDKENKEVTIVIIKKK was 3.54 kcal/mol.
Consider DLVTIKVPLENLEEIKKAAEKAGFKIVSISYDKENKEVTIVIQKKK, for which the “folding stability dG” value turned out to be 3.64 kcal/mol.
Consider DLVTIKVPLENLEEIKKAAEKAGFKIVSISYDKENKEVTIVIPKKK, for which the “folding stability dG” value came to 2.34 kcal/mol.
With DLVTIKVPLENLEEIKKAAEKAGFKIVSISYDKENKESTIVIEKKK the figure was 3.12 kcal/mol.

These data come from the MegaScale stability set (Tsuboyama et al. 2023).
